In patent US20210246200A1 (UNIVERSIT T Z RICH, published 2021):

Legend:
Proleukin® (aldesleukin) [1] = biological target: T1, Proleukin® (aldesleukin) (human, UniProt P60568 21-153, limits assumed); experiment: ELISA, coated Proleukin, serially diluted supernatant
T1 construct: Variant of human wt IL-2 with C145S (C125S on mature IL-2); also called IL-2 (Proleukin®); human IL-2 (Proleukin)

Proleukin® (aldesleukin) [2] = biological target: T1, Proleukin® (aldesleukin); experiment: ELISA, coated Proleukin, HEK293F supernatant 1:2
Procedure: Subsequently, hIL-2 binding efficiency of the antibodies present in the supernatants was determined using ELISA. In brief, ELISA plates (Maxisorp 96-well black microtiter plate) were coated overnight at 4° C. with 100p/well of Proleukin® (5 μg/ml PBS). ELISA plates were washed once with TBST (1×TBS/0.05% Tween 20) using a plate-washer (BioTek). […] After removal of the blocking buffer, plates were washed once with TBST using the plate washer. Supernatants were diluted 1:2 in blocking buffer and 50 μl transferred to the designated well of the ELISA plate. Each sample was present on three ELISA plates. The three plates were incubated at RT under gentle agitation. […] The other two plates were washed either every hour three times with TBST for 4 hours or washed every hour three times for 12 hours before adding the detection antibody. […] Luminescence signal was measured after 5 minutes incubation in the dark. […] All ELISA values are mean values based on two measurements.

T1 sequence (P60568 other isoform, or with tags, fused parts or gaps limits assumed): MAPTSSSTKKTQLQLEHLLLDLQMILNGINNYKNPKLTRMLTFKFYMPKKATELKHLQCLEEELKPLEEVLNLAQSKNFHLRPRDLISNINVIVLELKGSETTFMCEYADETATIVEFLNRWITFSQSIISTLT

Row | Binder | EC50 (Proleukin® (aldesleukin) [1]) [nM] | ELISA value (Normal ELISA) (Proleukin® (aldesleukin) [2]) [luminescence signal] | ELISA value (wash 3x every hour for 4 HRS) (Proleukin® (aldesleukin) [2]) [luminescence signal] | ELISA value (wash 3x every hour for 12 HRS) (Proleukin® (aldesleukin) [2]) [luminescence signal]
1 | Antibody No: 2 (antibody, human IgG1, kappa, N297A, V domains shown, VH WT; VK M33L; HEK293F supernatant) VH: EVQLVQSGAEVKKPGESLKISCKGSGYAFTNYLIEWVRQMPGKGLEWMGVINPGSGGTNYNEKFKGQVTISADKSISTAYLQWSSLKASDTAMYYCARWRGEGYYAYFDVWGQGTTVTVSS VL: AIRLTQSPSSFSASTGDRVTITCKASQSVDYQGDSYLNWYQQKPGKAPKLLIYAASNLESGVPSRFSGSGSGTDFTLTISSLQSEDFATYYCQQSNEDPYTFGGGTKVEIKR | 0.79 | 1360 | 1230 | 518
2 | Antibody No: 18 (antibody, human IgG1, kappa, N297A, V domains shown, VK A50S; HEK293F supernatant) VH: EVQLVQSGAEVKKPGESLKISCKGSGYAFTNYLIEWVRQMPGKGLEWMGVINPGSGGTYYNEKFKGQVTISADKSISTAYLQWSSLKASDTAMYYCARWRGEGYYAYYDVWGQGTTVTVSS VL: AIRLTQSPSSFSASTGDRVTITCKASQSVDYQGDSYMNWYQQKPGKAPKLLIYSASNLESGVPSRFSGSGSGTDFTLTISSLQSEDFATYYCQQSNEDPYTFGGGTKVEIKR | 0.54 | 8060 | 7320 | 3660
3 | Antibody No: 6 (antibody, human IgG1, kappa, N297A, V domains shown, VK WT; HEK293F supernatant) VH: EVQLVQSGAEVKKPGESLKISCKGSGYAFTNYLIEWVRQMPGKGLEWMGVINPGSGGTNYNEKFKGQVTISADKSISTAYLQWSSLKASDTAMYYCARWRGEGYYAYYDVWGQGTTVTVSS VL: AIRLTQSPSSFSASTGDRVTITCKASQSVDYQGDSYMNWYQQKPGKAPKLLIYAASNLESGVPSRFSGSGSGTDFTLTISSLQSEDFATYYCQQSNEDPYTFGGGTKVEIKR | 0.34 | 5850 | 5120 | 1730
4 | Antibody No: 5 (antibody, human IgG1, kappa, N297A, V domains shown, VH WT; VK M33L + A50S; HEK293F supernatant) VH: EVQLVQSGAEVKKPGESLKISCKGSGYAFTNYLIEWVRQMPGKGLEWMGVINPGSGGTNYNEKFKGQVTISADKSISTAYLQWSSLKASDTAMYYCARWRGEGYYAYFDVWGQGTTVTVSS VL: AIRLTQSPSSFSASTGDRVTITCKASQSVDYQGDSYLNWYQQKPGKAPKLLIYSASNLESGVPSRFSGSGSGTDFTLTISSLQSEDFATYYCQQSNEDPYTFGGGTKVEIKR | 0.5 | 4970 | 4490 | 873
5 | Antibody No: 16 (antibody, human IgG1, kappa, N297A, V domains shown, VK WT; HEK293F supernatant) VH: EVQLVQSGAEVKKPGESLKISCKGSGYAFTNYLIEWVRQMPGKGLEWMGVINPGSGGTYYNEKFKGQVTISADKSISTAYLQWSSLKASDTAMYYCARWRGEGYYAYYDVWGQGTTVTVSS VL: AIRLTQSPSSFSASTGDRVTITCKASQSVDYQGDSYMNWYQQKPGKAPKLLIYAASNLESGVPSRFSGSGSGTDFTLTISSLQSEDFATYYCQQSNEDPYTFGGGTKVEIKR | 0.38 | 10200 | 9810 | 2280
6 | Antibody No: 7 (antibody, human IgG1, kappa, N297A, V domains shown, VK M33L; HEK293F supernatant) VH: EVQLVQSGAEVKKPGESLKISCKGSGYAFTNYLIEWVRQMPGKGLEWMGVINPGSGGTNYNEKFKGQVTISADKSISTAYLQWSSLKASDTAMYYCARWRGEGYYAYYDVWGQGTTVTVSS VL: AIRLTQSPSSFSASTGDRVTITCKASQSVDYQGDSYLNWYQQKPGKAPKLLIYAASNLESGVPSRFSGSGSGTDFTLTISSLQSEDFATYYCQQSNEDPYTFGGGTKVEIKR | 0.31 | 7640 | 6360 | 1550
7 | Antibody No: 17 (antibody, human IgG1, kappa, N297A, V domains shown, VK M33L; HEK293F supernatant) VH: EVQLVQSGAEVKKPGESLKISCKGSGYAFTNYLIEWVRQMPGKGLEWMGVINPGSGGTYYNEKFKGQVTISADKSISTAYLQWSSLKASDTAMYYCARWRGEGYYAYYDVWGQGTTVTVSS VL: AIRLTQSPSSFSASTGDRVTITCKASQSVDYQGDSYLNWYQQKPGKAPKLLIYAASNLESGVPSRFSGSGSGTDFTLTISSLQSEDFATYYCQQSNEDPYTFGGGTKVEIKR | 1.39 | 3050 | 2820 | 1140
8 | Antibody No: 23 (antibody, human IgG1, kappa, N297A, V domains shown, VK A50S; HEK293F supernatant) VH: EVQLVQSGAEVKKPGESLKISCKGSGYAFSNYLIEWVRQMPGKGLEWMGVINPGSGGTNYNEKFKGQVTISADKSISTAYLQWSSLKASDTAMYYCARWRGEGYYAYYDVWGQGTTVTVSS VL: AIRLTQSPSSFSASTGDRVTITCKASQSVDYQGDSYMNWYQQKPGKAPKLLIYSASNLESGVPSRFSGSGSGTDFTLTISSLQSEDFATYYCQQSNEDPYTFGGGTKVEIKR | 0.26 | 6170 | 4640 | 1250
9 | Antibody No: 11 (antibody, human IgG1, kappa, N297A, V domains shown, VH N58Y; VK WT; HEK293F supernatant) VH: EVQLVQSGAEVKKPGESLKISCKGSGYAFTNYLIEWVRQMPGKGLEWMGVINPGSGGTYYNEKFKGQVTISADKSISTAYLQWSSLKASDTAMYYCARWRGEGYYAYFDVWGQGTTVTVSS VL: AIRLTQSPSSFSASTGDRVTITCKASQSVDYQGDSYMNWYQQKPGKAPKLLIYAASNLESGVPSRFSGSGSGTDFTLTISSLQSEDFATYYCQQSNEDPYTFGGGTKVEIKR | 0.34 | 12400 | 10500 | 3500
10 | Antibody No: 21 (antibody, human IgG1, kappa, N297A, V domains shown, VK WT; HEK293F supernatant) VH: EVQLVQSGAEVKKPGESLKISCKGSGYAFSNYLIEWVRQMPGKGLEWMGVINPGSGGTNYNEKFKGQVTISADKSISTAYLQWSSLKASDTAMYYCARWRGEGYYAYYDVWGQGTTVTVSS VL: AIRLTQSPSSFSASTGDRVTITCKASQSVDYQGDSYMNWYQQKPGKAPKLLIYAASNLESGVPSRFSGSGSGTDFTLTISSLQSEDFATYYCQQSNEDPYTFGGGTKVEIKR | 0.65 | 2200 | 1840 | 892
11 | Antibody No: 4 (antibody, human IgG1, kappa, N297A, V domains shown, VH WT; VK A50T; HEK293F supernatant) VH: EVQLVQSGAEVKKPGESLKISCKGSGYAFTNYLIEWVRQMPGKGLEWMGVINPGSGGTNYNEKFKGQVTISADKSISTAYLQWSSLKASDTAMYYCARWRGEGYYAYFDVWGQGTTVTVSS VL: AIRLTQSPSSFSASTGDRVTITCKASQSVDYQGDSYMNWYQQKPGKAPKLLIYTASNLESGVPSRFSGSGSGTDFTLTISSLQSEDFATYYCQQSNEDPYTFGGGTKVEIKR | 0.73 | 2180 | 1990 | 705
12 | Antibody No: 9 (antibody, human IgG1, kappa, N297A, V domains shown, VK A50T; HEK293F supernatant) VH: EVQLVQSGAEVKKPGESLKISCKGSGYAFTNYLIEWVRQMPGKGLEWMGVINPGSGGTNYNEKFKGQVTISADKSISTAYLQWSSLKASDTAMYYCARWRGEGYYAYYDVWGQGTTVTVSS VL: AIRLTQSPSSFSASTGDRVTITCKASQSVDYQGDSYMNWYQQKPGKAPKLLIYTASNLESGVPSRFSGSGSGTDFTLTISSLQSEDFATYYCQQSNEDPYTFGGGTKVEIKR | 0.5 | 1940 | 1430 | 686
13 | Antibody No: 19 (antibody, human IgG1, kappa, N297A, V domains shown, VK A50T; HEK293F supernatant) VH: EVQLVQSGAEVKKPGESLKISCKGSGYAFTNYLIEWVRQMPGKGLEWMGVINPGSGGTYYNEKFKGQVTISADKSISTAYLQWSSLKASDTAMYYCARWRGEGYYAYYDVWGQGTTVTVSS VL: AIRLTQSPSSFSASTGDRVTITCKASQSVDYQGDSYMNWYQQKPGKAPKLLIYTASNLESGVPSRFSGSGSGTDFTLTISSLQSEDFATYYCQQSNEDPYTFGGGTKVEIKR | 0.5 | 5400 | 4880 | 2210
14 | Antibody No: 14 (antibody, human IgG1, kappa, N297A, V domains shown, VH N58Y; VK A50T; HEK293F supernatant) VH: EVQLVQSGAEVKKPGESLKISCKGSGYAFTNYLIEWVRQMPGKGLEWMGVINPGSGGTYYNEKFKGQVTISADKSISTAYLQWSSLKASDTAMYYCARWRGEGYYAYFDVWGQGTTVTVSS VL: AIRLTQSPSSFSASTGDRVTITCKASQSVDYQGDSYMNWYQQKPGKAPKLLIYTASNLESGVPSRFSGSGSGTDFTLTISSLQSEDFATYYCQQSNEDPYTFGGGTKVEIKR | 0.36 | 7180 | 7200 | 2540
15 | Antibody No: 10 (antibody, human IgG1, kappa, N297A, V domains shown, VK M33L + A50S; HEK293F supernatant) VH: EVQLVQSGAEVKKPGESLKISCKGSGYAFTNYLIEWVRQMPGKGLEWMGVINPGSGGTNYNEKFKGQVTISADKSISTAYLQWSSLKASDTAMYYCARWRGEGYYAYYDVWGQGTTVTVSS VL: AIRLTQSPSSFSASTGDRVTITCKASQSVDYQGDSYLNWYQQKPGKAPKLLIYSASNLESGVPSRFSGSGSGTDFTLTISSLQSEDFATYYCQQSNEDPYTFGGGTKVEIKR | 0.35 | 6050 | 4430 | 1630
16 | Antibody No: 22 (antibody, human IgG1, kappa, N297A, V domains shown, VK M33L; HEK293F supernatant) VH: EVQLVQSGAEVKKPGESLKISCKGSGYAFSNYLIEWVRQMPGKGLEWMGVINPGSGGTNYNEKFKGQVTISADKSISTAYLQWSSLKASDTAMYYCARWRGEGYYAYYDVWGQGTTVTVSS VL: AIRLTQSPSSFSASTGDRVTITCKASQSVDYQGDSYLNWYQQKPGKAPKLLIYAASNLESGVPSRFSGSGSGTDFTLTISSLQSEDFATYYCQQSNEDPYTFGGGTKVEIKR | 0.43 | 3970 | 3190 | 1200
17 | Antibody No: 3 (antibody, human IgG1, kappa, N297A, V domains shown, VH WT; VK A50S; HEK293F supernatant) VH: EVQLVQSGAEVKKPGESLKISCKGSGYAFTNYLIEWVRQMPGKGLEWMGVINPGSGGTNYNEKFKGQVTISADKSISTAYLQWSSLKASDTAMYYCARWRGEGYYAYFDVWGQGTTVTVSS VL: AIRLTQSPSSFSASTGDRVTITCKASQSVDYQGDSYMNWYQQKPGKAPKLLIYSASNLESGVPSRFSGSGSGTDFTLTISSLQSEDFATYYCQQSNEDPYTFGGGTKVEIKR | 0.51 | 4500 | 4580 | 1310
